Measured values taken from publication PMC10202812, “Resilience to autosomal dominant Alzheimer’s disease in a Reelin-COLBOS heterozygous man” (Nature Medicine, 2023).

Molecular target: T1, neuropilin 1 (NRP1) (UniProt O14786 22-856, biotinylated at a 1:2 molar ratio)
T1 construct: neuropilin 1 (NRP1), recombinant, R&D Systems catalog no; 3870-N1-025; source: bought: R&D Systems (catalog no. 3870-N1-025)
T1 sequence (looked up): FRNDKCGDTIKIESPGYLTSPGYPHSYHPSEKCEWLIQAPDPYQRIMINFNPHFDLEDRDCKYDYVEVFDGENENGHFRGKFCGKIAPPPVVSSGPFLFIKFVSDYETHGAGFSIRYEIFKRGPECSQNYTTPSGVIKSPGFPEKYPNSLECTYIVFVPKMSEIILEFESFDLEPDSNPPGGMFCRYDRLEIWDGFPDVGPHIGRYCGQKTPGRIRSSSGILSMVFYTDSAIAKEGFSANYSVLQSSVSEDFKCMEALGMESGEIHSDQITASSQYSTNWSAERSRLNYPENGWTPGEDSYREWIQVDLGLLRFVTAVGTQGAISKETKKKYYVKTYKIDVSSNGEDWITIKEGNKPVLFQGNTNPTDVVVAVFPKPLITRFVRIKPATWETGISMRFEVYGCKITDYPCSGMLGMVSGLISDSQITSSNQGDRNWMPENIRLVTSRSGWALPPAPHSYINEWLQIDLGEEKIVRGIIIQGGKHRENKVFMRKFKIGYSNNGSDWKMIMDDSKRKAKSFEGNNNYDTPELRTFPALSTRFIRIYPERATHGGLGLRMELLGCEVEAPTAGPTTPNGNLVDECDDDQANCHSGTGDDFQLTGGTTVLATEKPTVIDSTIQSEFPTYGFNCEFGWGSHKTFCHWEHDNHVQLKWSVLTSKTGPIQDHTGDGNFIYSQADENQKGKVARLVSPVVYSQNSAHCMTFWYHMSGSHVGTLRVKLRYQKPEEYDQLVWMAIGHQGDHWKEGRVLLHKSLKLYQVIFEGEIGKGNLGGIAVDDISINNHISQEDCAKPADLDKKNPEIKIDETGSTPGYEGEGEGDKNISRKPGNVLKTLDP
Experiment: BLI; biotinylated NRP1 immobilised on streptavidin biosensor tips (Octet); 30 °C, 1,000 rpm; 240 s association, 300 s dissociation; SD Buffer (PBS, 0.05% Tween 20, 0.01% BSA, pH 7.4); 1:1 binding model, global fitting
Conditions: both partners purified

B1: Fc-fusion CTR-RELN H3447R (CTR-RELN-COLBOS) (Fc fusion, human, UniProt P78509 3429-3460, looked up)
chain: STRKQNYMMNFSRQHGLRRFYNRRRRSLRRYP
notes: Reelin (RELN), C-terminal region, amino acids 3,429-3,460 (numbers of the 3,460-residue human protein), with the natural variant H3447R (COLBOS); source: DNA encoding amino acids 3,429-3,460 of RELN-CTR cloned into the pFUSEN-hG2Fc plasmid (InvivoGen)
B1 was tested, and the “fold affinity against WT CTR-RELN” value was 10 fold.
